Data published in publication PMC10065799, “High-throughput profiling of sequence recognition by tyrosine kinases and SH2 domains using bacterial peptide display” (eLife, 2023).

Target: human c-Src kinase domain (residues 260-528) (human) (UniProt P12931)

Ac-GPDECIYDMFPFKKKG-NH2 [Src Consensus peptide Ac-…-NH2]
KM (μM) of phosphorylation, Michaelis-Menten analysis, ADP-Quest assay: 196 µM
